Measured values: the DeepSol protein solubility set

Assay: soluble on expression in E. coli; label from the status in PepcDB or PDB records

Sequence | soluble on expression in E. coli
MGSDKIHHHHHHLGIYVNPTGRSFELAINSEIFVDKSGLIKETNKCINTLQRYMCVSRPRRFGKSMAMDMLSAYYGRKTDAENLFKGLKISHDESYDRHINKYDVLKINMQDFLSVTHSVDDMLKMLCEYITDDFSIECKDIIFRDKSNIVRVMQDVFMSTGRPFVILIDEWDCLFREFTQDKEAQKKYLDFLRGWLKDKDYIALAYMTGILPIKKYGSHSALNMFTEYSMTDMGALAEYFGFTDDEVRELCDRYDMDFEEARAWYNGYKLVSHSKYGVKKYAMYSPKSVVEAMLKHKFGTYWNQTETYEALKVYIQMNMDGLKDAVIKMLAGESEKINTGTFENDMTSFATKDDVLTLLVHLGYLTYDSETEEVSIPNREVSKEYLNAISTMDWDEVSKSIKASQKLLESLWNMNGAAVADGIDKAHNEISILRYNDENSLSCTINLAFYSAREYYSIVRELPTGKGFADVCFIPRVSHLDKPAVVIELKYDKNVDGAISQIKSRQYVEALKDYKGNLLLVGINYDKKTKEHQCVIEKWKL | not soluble
MGSDKIHHHHHHLGKFSHIAIAFIDVVMESDHAGLELIRWIREELHNKTIRLILRTGQPGQAPEEDVIVNYDINDYKAKSELDSRKLMTSVYSALRSYRDIMEIEQARRAQLSHRMGLERVLEATAGLFELRTLHKFADGLLTQVATLLNLDNETLLLSCNAMDAISGHVDCAGIEILAGTGQFANSSAKTILPERIDKLLRSALAQKRCLYEDNYFVGYFPTKSGLINLLYMDGINKIDDLDKKLIDIFAINVGIAFENLLLNQEVEDTQSELILRLGDVVESRSKEAANHVKRMAEYCAQLALLAGLNEYDADLLRRASPMHDIGKIAIPDAVLLKPGKLNDDEWQIMRQHPNIGHQILANSERPILKAASIIALQHHEKYDGSGYPSNLKQDEIHIFARIVAIADVFDALSHTRCWLFLPIPQKCKISDRLAQKHTVNWSLYRRIP | not soluble
MGSDKIHHHHHHLKVVCISDTHEQLHNVTVPDGDVLIHAGDFTNNGKREELIKFNEEMTRFPHKYKLVVAGNHELGFDHDENQGERQDADKGLGTEDGYNILTNVTYLQDKGVTIDGVTFFGSSYHPLRGFPFYRNRAEQLAECWKAVPNDTNVLITHTPPLGYLDQFGDERWGCRDLLKTVERIQPAYHIFGHVHEQHGVLSNGNTVCYKLYENEF | not soluble
MGSDKIHHHHHHLRIFGKEGCRMEMQRVIELDMPVNFRDLGGYQGLDGRQVKWRKIYRSAALNEMSARDRVKLANLRITVDCDLRSSREQRSYPDLLWPGVRFVNIGLYAEGDRFNQAHPFLRLFHHLPEFDDYLPKIYQQVLLNEHSEEGIKRVFEELLKLPEDQALVYHCAAGKDRTGIISILILMALGVDDKTIAEDYLLTDELYDFSIEKQHPTNEKLSQVIAKMNVTRGEGTAVKGITETIRQGWGSFDKFFTRKLGFKQADLEKFREMYLEEEEED | not soluble
MGSDKIHHHHHHLSKLYPHAKNRQDSGMDRNPTLAQWQLAQELRRLRGDRKFSEVVKAARTTGGSLARWETPGDRGAVPGPAALERLLQIYGAEDQLERLLSLRKEARQPDRWQPYGLERSYRTYANIESQATSIEYYQSQIVPGIAQTEAYARAVIEATLHPSSDVDREVQARMERQRVLSKPERPDLWLIIAEGALRQQVGTSQVMADQIDRLIELSQEPGITLQVLPFTAGAHVAMRLAGFVIMSIAQHGITTVYIEGQNSGMFFTDSEDLAEYGMIFNRLRAACLDEGRPTRTLLERIARDHRRGEG | not soluble
MGSDKIHHHHHHLTIRVLAHLAGAHLDHAIALGLRSGLGDDWLRIGGLKLFADGSLGSESAHMLLPYEGRDHTGIAVIPPAEMQEIVTRANAHGISVVVHAIGDAANRSVLDAIAAARATAASLALPNRIEHCQILDPHDIPRFAELNVIASMQPIHCTADMVMAERLWGKRCATSYAWRSLRAAGATLAFGSDAPVETMDPWAGIHAAVTRQTTDGTPDGGWYPEQRLTLTEALEAYCIGPTIAGADAERRGRLIPGMFADLAVLNGDPFQMPVTHLHTLHAELTMVGGKIVFNRTSR | not soluble
